Experimental findings from PMC9063327 are described below.

Substrate in data set [1]: CC(=O)C(=O)O
Description: purified protein. Type of data set: biochemical, Lactococcus lactis. As to conditions: 50 mM potassium phosphate, 1 mM MgSO4, 0.5 mM thiamine pyrophosphate, 0.2 mM NADH; brackets are 95% CI.

Substrate in data set [2]: CC(C)C(=O)C(=O)O
Description: purified protein. The conditions noted are these: 50 mM potassium phosphate, 1 mM MgSO4, 0.5 mM thiamine pyrophosphate, 0.2 mM NADH; brackets are 95% CI. Type of data set: biochemical, Lactococcus lactis.

B1: KivD (Lactococcus lactis subsp. lactis) (protein)
chain: MYTVGDYLLDRLHELGIEEIFGVPGDYNLQFLDQIISHKDMKWVGNANELNASYMADGYARTKKAAAFLTTFGVGELSAVNGLAGSYAENLPVVEIVGSPTSKVQNEGKFVHHTLADGDFKHFMKMHEPVTAARTLLTAENATVEIDRVLSALLKERKPVYINLPVDVAAAKAEKPSLPLKKENSTSNTSDQEILNKIQESLKNAKKPIVITGHEIISFGLEKTVTQFISKTKLPITTLNFGKSSVDEALPSFLGIYNGTLSEPNLKEFVESADFILMLGVKLTDSSTGAFTHHLNENKMISLNIDEGKIFNERIQNFDFESLISSLLDLSEIEYKGKYIDKKQEDFVPSNALLSQDRLWQAVENLTQSNETIVAEQGTSFFGASSIFLKSKSHFIGQPLWGSIGYTFPAALGSQIADKESRHLLFIGDGSLQLTVQELGLAIREKINPICFIINNDGYTVEREIHGPNQSYNDIPMWNYSKLPESFGATEDRVVSKIVRTENEFVSVMKEAQADPNRMYWIELILAKEGAPKVLKKMGKLFAEQNKS
notes: full length, pET28a, N-terminal His tag (kept), expressed in E. coli BL21(DE3), Ni-NTA purified; gene from pGEM-kivD
Usually kcat stands for the maximal rate divided by the concentration of active sites. As usually defined, the kcat/Km is the turnover number divided by the Michaelis constant. As for B1, in data set [1], the Km is given as 18.81 (17.15, 20.85) mM; the Vmax is on record as 0.0034 (0.0029, 0.0039); the kcat was 0.28 s⁻¹; the catalytic efficiency (kcat/Km) is 15.1 M⁻¹ s⁻¹. In data set [2], the Km was 4.18 (4.08, 4.23) mM; the Vmax was 0.0409 (0.038, 0.044); the kcat is 3.46 s⁻¹; the kcat/Km worked out at 828 M⁻¹ s⁻¹.
